Data reported in patent publication US20200131474A1, “METHODS AND COMPOSITIONS FOR OCULAR CELL THERAPY” (Novartis AG, priority 2018, published 2020).

B1: CR000442: gRNA targeting B2M; targeting domain GGCCACGGAGCGAGACAUCU (SEQ ID NO: 134); sgRNA SEQ ID NO: 171 (nucleic acid)
guide: GGCCACGGAGCGAGACAUCUGUUUUAGAGCUAGAAAUAGCAAGUUAAAAUAAGGCUAGUCCGUUAUCAACUUGAAAAAGUGGCACCGAGUCGGUGCUUUU
modifications: listed as RNA, chemistry not given here
B2: 9-HEYJA000005: gRNA targeting B2M; targeting domain UCACGUCAUCCAGCAGAGAA (SEQ ID NO: 116); sgRNA SEQ ID NO: 167 (nucleic acid)
guide: UCACGUCAUCCAGCAGAGAAGUUUUAGAGCUAGAAAUAGCAAGUUAAAAUAAGGCUAGUCCGUUAUCAACUUGAAAAAGUGGCACCGAGUCGGUGCUUUU
modifications: listed as RNA, chemistry not given here
B3: 4-CR004366: gRNA targeting B2M (Dharmacon); targeting domain CAGUAAGUCAACUUCAAUGU (SEQ ID NO: 111); sgRNA SEQ ID NO: 162 (nucleic acid)
guide: CAGUAAGUCAACUUCAAUGUGUUUUAGAGCUAGAAAUAGCAAGUUAAAAUAAGGCUAGUCCGUUAUCAACUUGAAAAAGUGGCACCGAGUCGGUGCUUUU
modifications: listed as RNA, chemistry not given here
B4: CR000443: gRNA targeting B2M; targeting domain CGCGAGCACAGCUAAGGCCA (SEQ ID NO: 135); sgRNA SEQ ID NO: 172 (nucleic acid)
guide: CGCGAGCACAGCUAAGGCCAGUUUUAGAGCUAGAAAUAGCAAGUUAAAAUAAGGCUAGUCCGUUAUCAACUUGAAAAAGUGGCACCGAGUCGGUGCUUUU
modifications: listed as RNA, chemistry not given here
B5: 8-HEYJA000004: gRNA targeting B2M; targeting domain ACUCACGCUGGAUAGCCUCC (SEQ ID NO: 115 in Table 10, 118 in Table 4); sgRNA SEQ ID NO: 166 (nucleic acid)
guide: ACUCACGCUGGAUAGCCUCCGUUUUAGAGCUAGAAAUAGCAAGUUAAAAUAAGGCUAGUCCGUUAUCAACUUGAAAAAGUGGCACCGAGUCGGUGCUUUU
modifications: listed as RNA, chemistry not given here
B6: CR000446: gRNA targeting B2M; targeting domain AGGGUAGGAGAGACUCACGC (SEQ ID NO: 136); sgRNA SEQ ID NO: 173 (nucleic acid)
guide: AGGGUAGGAGAGACUCACGCGUUUUAGAGCUAGAAAUAGCAAGUUAAAAUAAGGCUAGUCCGUUAUCAACUUGAAAAAGUGGCACCGAGUCGGUGCUUUU
modifications: listed as RNA, chemistry not given here
B7: CR000453: gRNA targeting B2M; targeting domain CACAGCCCAAGAUAGUUAAG (SEQ ID NO: 137); sgRNA SEQ ID NO: 174 (nucleic acid)
guide: CACAGCCCAAGAUAGUUAAGGUUUUAGAGCUAGAAAUAGCAAGUUAAAAUAAGGCUAGUCCGUUAUCAACUUGAAAAAGUGGCACCGAGUCGGUGCUUUU
modifications: listed as RNA, chemistry not given here
B8: 6-HEYJA000001: gRNA targeting B2M; targeting domain GGCCGAGAUGUCUCGCUCCG (SEQ ID NO: 113); sgRNA SEQ ID NO: 164 (nucleic acid)
guide: GGCCGAGAUGUCUCGCUCCGGUUUUAGAGCUAGAAAUAGCAAGUUAAAAUAAGGCUAGUCCGUUAUCAACUUGAAAAAGUGGCACCGAGUCGGUGCUUUU
modifications: listed as RNA, chemistry not given here
B9: CR000456: gRNA targeting B2M; targeting domain CUUACCCCACUUAACUAUCU (SEQ ID NO: 139); sgRNA SEQ ID NO: 176 (nucleic acid)
guide: CUUACCCCACUUAACUAUCUGUUUUAGAGCUAGAAAUAGCAAGUUAAAAUAAGGCUAGUCCGUUAUCAACUUGAAAAAGUGGCACCGAGUCGGUGCUUUU
modifications: listed as RNA, chemistry not given here
B10: CR000455: gRNA targeting B2M; targeting domain UUACCCCACUUAACUAUCUU (SEQ ID NO: 138); sgRNA SEQ ID NO: 175 (nucleic acid)
guide: UUACCCCACUUAACUAUCUUGUUUUAGAGCUAGAAAUAGCAAGUUAAAAUAAGGCUAGUCCGUUAUCAACUUGAAAAAGUGGCACCGAGUCGGUGCUUUU
modifications: listed as RNA, chemistry not given here

Key:
[1] = test system: phospho-YAP (ser127); assay: Exposure of LSCs to LATS inhibitors, YAP phosphorylation by western blot; type: cell-based, human; conditions: 10 micromolar, 1 hour, DMSO as negative control
Experimental: The medium was then replaced by fresh limbal epithelium cell culture medium (DMEM F12 supplemented with 10% human serum and 1.3 mM calcium chloride) supplemented with LATS inhibitor compound example no. […] Cells were cultured under these conditions for 1 hour at 37° C. in 5% CO2.
To measure the effect of the LATS inhibitors on the downstream target YAP, the YAP phosphorylation levels were measured by western blot as follows. The cell pellets were obtained by trypsin dissociation and centrifugation and washed with PBS. The pellets were lysed with 30 microlitres of RIPA lysis buffer containing protease inhibitor cocktail (Life Technologies) for 30 minutes, with vortexing every 10 minutes. The cell debris were then pelleted at 4° C. for 15 minutes at 14 k rpm and the protein lysate was collected. Protein concentration was quantified using a micro BCA kit (Pierce). Fifteen micrograms of total protein was loaded in each well of 4-20% TGX gels (BioRad) and Western blotting was performed according to the manufacturer's instructions. […] Membranes were stained with HRP-conjugated secondary antibodies, rinsed and imaged using a ChemiDoc system (Biorad) according to the manufacturer's instructions.

[2] = test system: YAP; assay: Exposure of LSCs to LATS inhibitors, intracellular YAP distribution by immunohistochemistry; type: cell-based, human; conditions: 10 micromolar, 24 hours, compared with DMSO control; data not shown
Experimental: Research-consented cadaveric human corneas were obtained from eye banks. Limbal rims were dissected and partially dissociated in a 1.2 mg/ml dispase solution for 2 hours at 37° C. followed by 10 minutes in TrypLE (Life Technologies). Pieces of limbal crypts were then carefully cut out of the partially dissociated limbal rims and rinsed by centrifugation). Cells obtained in this manner were used in the Examples below.
Cells were cultured under these conditions for 24 hours at 37° C. in 5% CO2.
To measure the effect of the LATS inhibitors on the downstream target YAP, intracellular YAP distribution was analyzed by immunohistochemistry. Cell cultures were fixed with 4% PFA for 20 minutes, permeabilized and blocked in a blocking solution of 0.3% Triton X-100 (Sigma-Aldrich) and 3% donkey serum in PBS for 30 minutes. Cells were then labeled with primary antibody in the blocking solution for 12 hours at 4° C. Primary antibody used was anti-YAP from Santa Cruz Biotechnology. Samples were washed in PBS three times and donkey-raised secondary antibody Alexa Fluor 488 (Molecular Probes) at 1:500 dilution were applied for 30 minutes at room temperature. […] Fluorescence was observed using a Zeiss LSM 880 confocal microscope.

[3] = test system: limbal stem cells; assay: Human limbal stem cell population expansion, immunohistochemical observation of p63alpha phenotype; type: cell-based; conditions: for colony formation and p63alpha expression: 10 micromolar, 6 days after isolation without passaging, DMSO as negative control
Experimental: Cells were first cultured at 37° C. in 5% CO2 for 6 days after isolation without passaging (FIGS. 2A, 2B and 2C).
To evaluate the ability of the compounds to enable LSC expansion after two passages, LSCs were passaged and cultured for two weeks in the presence of compound example 3 to enable expansion (FIG. 2D). Limbal stem cells (LSCs) were passaged by treating cultures with Accutase for 10 minutes at 37° C., rinsing the cell suspension by centrifugation and plating cells in fresh LSC culture medium supplemented with LATS inhibitor compound example 3.
In order to observe that the expanded cell population expressed p63alpha, this was measured by immunohistochemistry as follows. Cell cultures were fixed with 4% PFA for 20 minutes, permeabilized and blocked in a blocking solution of 0.3% Triton X-100 (Sigma-Aldrich) and 3% donkey serum in PBS for 30 minutes. Cells were then labeled with primary antibody in the blocking solution for 12 hours at 4° C. Primary antibody used was p63alpha from Cell Signalling. Samples were washed in PBS three times and donkey-raised secondary antibody Alexa Fluor 488 (Molecular Probes) at 1:500 dilution were applied for 30 minutes at room temperature. Cells were counter-stained with a human nuclear antigen antibody (Millipore) at a 1:500 dilution in order to label all cells in the culture and confirm their human identity. […] Fluorescence was observed using a Zeiss LSM 880 confocal microscope.

[4] = test system: genomic DNA purified from male human peripheral blood mononuclear cells; assay: Biochemical method for potential off-target genomic sites cleaved by Cas9 and B2M guides; conditions: guide concentration of 64 nM
Text: A biochemical method (See, e.g., Cameron et al., Nature Methods. 6, 600-606; 2017) was used to determine potential off-target genomic sites cleaved by Cas9 and selected B2M guides.

[5] = test system: potential off-target sites; assay: Off-target activity detection in limbal stem cells by targeted PCR and NGS; type: cell-based, human; conditions: edited LSCs vs non-edited PBMCs; positive sites of sequenced loci
Experimental: Potential CRISPR/Cas9-mediated cutting sites identified above were evaluated using targeted PCR and NGS in genome-edited expanded LSCs.
Selected sgRNAs (SEQ ID NO: 120, 162, 166, 167, 171, and 175) were further analyzed by amplicon sequencing in edited and non-edited cells. Primers flanking the potential off-target sites for each guide were used to detect indels by NGS analysis in edited LSCs and non-edited peripheral blood mononuclear cells. Sites that had either (1) a difference in mean indel percentage between edited and unedited cells greater than 0.5%; or (2) a p value less than 0.05 between edited and unedited indel were further analyzed. NGS sequence reads for such sites were assessed for characteristic indel patterns near the putative Cas9 cut site.

Molecule	off-target Site_Count [4]	Number of sites positive for off-target activity in LSCs [5]	further results
CC(C)(O)CC(C)(C)Nc1nc(-c2ccncc2)nc2cnccc12 [Example 3, 2,4-dimethyl-4-{[2-(pyridin-4-yl)pyrido[3,4-d]pyrimidin-4-yl]amino}pentan-2-ol]			YAP phosphorylation levels in human LSCs (Western blot) [1]: caused a reduction in YAP phosphorylation levels; YAP phosphorylation levels in human LSCs (Western blot) ([1]; listed as ex. 3): induce YAP dephosphorylation; YAP immunostaining in the nucleus of LSCs [2]: stronger; colony formation and p63alpha expression [3]: the cells formed colonies and expressed p63alpha; cell population expansion after passaging, p63alpha expression ([3]; passaged and cultured for two weeks in the presence of compound): enabled cell population expansion and the formation of confluent cultures expressing p63alpha
Cc1n[nH]cc1-c1nc(NC2(C)CC2)c2ccncc2n1 [Example 4, 2-(3-methyl-1H-pyrazol-4-yl)-N-(1-methylcyclopropyl)pyrido[3,4-d]pyrimidin-4-amine]			YAP phosphorylation levels in human LSCs (Western blot) ([1]; listed as ex. 4): induce YAP dephosphorylation; YAP phosphorylation levels in human LSCs (Western blot) ([1]; listed as example no. 4): caused a reduction in YAP phosphorylation levels; YAP immunostaining in the nucleus of LSCs [2]: stronger; colony formation and p63alpha expression [3]: the cells formed colonies and expressed p63alpha
B1	29	zero	
B2	35	zero	
B3	92	zero	
B4	117		
B5	62	zero	
B6	98		
B7	82		
B8	8		
B9	66		
B10	48	zero	
